The values below come from article PMC9060471 (2022).

Usually EC50 stands for the concentration giving half of the maximal effect. A higher EC50 goes with weaker potency.

The target of the assay is 6xHis-TLX ligand-binding domain (UniProt Q9Y466 155-385).
Chain of 6xHis-TLX ligand-binding domain (Q9Y466 155-385): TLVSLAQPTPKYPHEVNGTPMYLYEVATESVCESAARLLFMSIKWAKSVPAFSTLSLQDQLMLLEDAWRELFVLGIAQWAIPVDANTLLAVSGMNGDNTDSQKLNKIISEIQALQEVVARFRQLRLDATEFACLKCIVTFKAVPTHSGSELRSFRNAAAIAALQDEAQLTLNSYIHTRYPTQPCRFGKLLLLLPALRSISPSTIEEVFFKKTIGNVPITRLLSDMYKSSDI

B1: NCOA1-II peptide (competitor in the ALPHA competition experiment) (peptide)
chain: LTERHKILHRLLQEGSPSD
For the molecule B1, the EC50 turned out to be 3.3 µM.
